Changes are numbered by the printed parent chain. Numbers in names are those of the source.
Legend:
[1] = target: T1, HSV-1 UL31, full length (residues 1-306) (HSV-1 strain F, UniProt P10215 1-306); test: SEC
T1 sequence: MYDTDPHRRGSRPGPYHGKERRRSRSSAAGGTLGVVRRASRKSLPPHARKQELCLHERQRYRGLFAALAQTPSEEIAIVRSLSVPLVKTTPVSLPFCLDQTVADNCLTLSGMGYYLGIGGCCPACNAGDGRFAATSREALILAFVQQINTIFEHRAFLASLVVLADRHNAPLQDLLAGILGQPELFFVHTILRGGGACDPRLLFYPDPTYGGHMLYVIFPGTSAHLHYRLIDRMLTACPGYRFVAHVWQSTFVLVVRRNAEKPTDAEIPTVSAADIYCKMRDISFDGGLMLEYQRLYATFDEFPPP

[2] = target: T2, HSV-1 UL31Δ50 (residues 51-306) (HSV-1 strain F, UniProt P10215 51-306); test: SEC
T2 sequence: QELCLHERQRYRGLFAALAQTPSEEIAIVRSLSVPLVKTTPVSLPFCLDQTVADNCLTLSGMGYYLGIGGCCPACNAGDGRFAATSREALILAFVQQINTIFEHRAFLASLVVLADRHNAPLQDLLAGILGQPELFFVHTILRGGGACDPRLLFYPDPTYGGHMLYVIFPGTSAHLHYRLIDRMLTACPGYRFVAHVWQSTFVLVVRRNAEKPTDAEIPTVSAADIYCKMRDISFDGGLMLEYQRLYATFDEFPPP

[3] = target: T1, HSV-1 UL31, full length (residues 1-306); test: co-purification
cross-linking = target: the molecule itself; test: cross-linking
cryo-EM structure = target: the molecule itself; test: cryo-EM structure

B1: HSV-1 UL34(1-185) (domain or fragment)
chain: MAGLGKPYTGHPGDAFEGLVQRIRLIVPSTLRGGDGEAGPYSPSSLPSRCAFQFHGHDGSDESFPIEYVLRLMNDWAEVPCNPYLRIQNTGVSVLFQGFFHRPHNAPGGAITPERTNVILGSTETTGLSLGDLDTIKGRLGLDARPMMASMWISCFVRMPRVQLAFRFMGPEDAGRTRRILCRAA
B1: binds [1]; binds [2].

B2: HSV-1 UL34(1-220) (domain or fragment)
chain: MAGLGKPYTGHPGDAFEGLVQRIRLIVPSTLRGGDGEAGPYSPSSLPSRCAFQFHGHDGSDESFPIEYVLRLMNDWAEVPCNPYLRIQNTGVSVLFQGFFHRPHNAPGGAITPERTNVILGSTETTGLSLGDLDTIKGRLGLDARPMMASMWISCFVRMPRVQLAFRFMGPEDAGRTRRILCRAAEQAITRRRRTRRSREAYGAEAGLGVAGTGFRARGD
B2: binds [2]; binds [3].

B3: HSV-1 nuclear egress complex NEC220-DN (UL31 1-306 with UL34 1-220 D35A/E37A) (complex)
chain 1: T1 sequence
chain 2: B2 chain with D35A, E37A
B3: binds (cross-linking).

B4: HSV-1 nuclear egress complex NEC220 (UL31 1-306 with UL34 1-220) (complex)
chain 1: T1 sequence
chain 2: B2 chain
With B4 the “stoichiometry N” value (cryo-EM structure) was 6.

— publication PMC4105210 (Nature communications, 2014)
